Publication PMC9555771 (Science Advances, 2022)
Substitutions are numbered along the chain they refer to. Each block holds one binder with its values, some of them ahead of it.

Experiments:
[1] = molecular target: T1, MsbA (WT), purified, His tag cleaved (Escherichia coli K-12); assay: cryo-EM structure
T1 chain: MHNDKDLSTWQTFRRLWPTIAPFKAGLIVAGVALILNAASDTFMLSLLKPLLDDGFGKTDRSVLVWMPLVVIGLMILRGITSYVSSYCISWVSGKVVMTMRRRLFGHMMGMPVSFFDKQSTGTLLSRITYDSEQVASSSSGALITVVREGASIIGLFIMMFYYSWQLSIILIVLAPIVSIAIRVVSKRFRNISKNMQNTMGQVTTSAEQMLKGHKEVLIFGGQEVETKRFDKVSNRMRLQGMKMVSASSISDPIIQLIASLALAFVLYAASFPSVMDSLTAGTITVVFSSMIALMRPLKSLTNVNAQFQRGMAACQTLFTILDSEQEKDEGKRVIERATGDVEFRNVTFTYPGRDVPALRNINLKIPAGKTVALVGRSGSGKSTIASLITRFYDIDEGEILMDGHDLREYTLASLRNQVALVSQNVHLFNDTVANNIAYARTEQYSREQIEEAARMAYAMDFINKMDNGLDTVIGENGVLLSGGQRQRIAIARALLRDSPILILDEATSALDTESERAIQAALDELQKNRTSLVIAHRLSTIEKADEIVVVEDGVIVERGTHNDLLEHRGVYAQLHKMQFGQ

[2] = molecular target: MsbA (WT), overexpressed in E. coli membranes and cells (Escherichia coli K-12, UniProt P60752); assay: DEER
[3] = molecular target: Avi-tagged full-length MsbA, biotinylated, detergent-solubilized (Escherichia coli (K-12 sequence), UniProt P60752, biotin on the Avi-tag (enzymatic, BirA)); assay: grating-coupled interferometry

binding result [1]: binds
binding result [2]: binds
binding result [3]: binds
B1: Nb_MsbA#1_A60C labeled with Gd-DOTA (VHH)
VHH: QMQLVESGGGLVQAGGSLRLSCAVSGSIFSIITLAWYRQAPGKPRENVATITRGSRTSYCDSVKGRFTISKDNAKSTVYLQMNKLKPEDTADYYCNAEGPAGYWGQGTPVTVS

binding result [1]: binds
binding result [2]: binds
binding result [3]: binds
B2: Nb_MsbA#1_T68C labeled with Gd-DOTA (VHH)
VHH: B1 VHH with C60A, T68C
